According to paper PMC11081419:

Biological target: CCL18 (human) (UniProt P55774)
Test: SPR
Conditions: domain or fragment

EVA‐ACA1001(ΔN), sequence (A0A023FFD0 29-136, stated change not applied): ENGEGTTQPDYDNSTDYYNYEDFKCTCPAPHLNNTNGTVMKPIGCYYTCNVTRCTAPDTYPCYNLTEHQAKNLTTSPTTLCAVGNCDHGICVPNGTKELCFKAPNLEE
CCL18 (human), sequence (P55774 21-89): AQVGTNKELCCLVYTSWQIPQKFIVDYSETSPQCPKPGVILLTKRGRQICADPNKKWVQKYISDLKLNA

## EVA‐ACA1001(ΔN) (from UniProt A0A023FFD0)
  Kd: < 100 pM
